{
  "source": "patent CN110606891A",
  "molecular_target": "鼠CLDN18.2 (mCLDN18.2), claudin-18 isoform A2.1 [Mus musculus], NP_001181850.1 (mouse) (UniProt P56857)",
  "sequence (P56857 other isoform, or with tags, fused parts or gaps, form in doubt)": "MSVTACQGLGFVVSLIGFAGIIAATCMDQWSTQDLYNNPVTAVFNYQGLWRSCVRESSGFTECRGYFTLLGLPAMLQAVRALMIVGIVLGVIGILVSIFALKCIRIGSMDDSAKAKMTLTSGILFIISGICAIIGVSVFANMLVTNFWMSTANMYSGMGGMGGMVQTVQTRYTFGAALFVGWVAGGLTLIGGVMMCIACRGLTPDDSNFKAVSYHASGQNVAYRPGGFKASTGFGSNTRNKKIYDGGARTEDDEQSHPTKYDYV",
  "assay": "cell ELISA on mCLDN18.2+ cells (Table 23), background",
  "data": [
    {"substance": "Neg IgG (和靶点没有结合的非特异性抗体) (antibody)", "values": [
      {"measurement": "Emax", "value": 0.19}
    ]}
  ]
}
